Results from PMC8277574 (2021).

B1: mouse MUSK full-length extracellular region (E22 to T494), Avi-His6, biotinylated (domain or fragment)
chain: EKLPKAPVITTPLETVDALVEEVATFMCAVESYPQPEISWTRNKILIKLFDTRYSIRENGQLLTILSVEDSDDGIYCCIANNGVGGAVESCGALQVKMKPKITRPPINVKIIEGLKAVLPCTTMGNPKPSVSWIKGDNALRENSRIAVLESGSLRIHNVQKEDAGQYRCVAKNSLGTAYSKLVKLEVEVFARILRAPESHNVTFGSFVTLRCTAIGIPVPTISWIENGNAVSSGSIQESVKDRVIDSRLQLFITKPGLYTCIATNKHGEKFSTAKAAATVSIAEWSKSQKDSQGYCAQYRGEVCDAVLAKDALVFFNTSYRDPEDAQELLIHTAWNELKAVSPLCRPAAEALLCNHLFQECSPGVVPTPMPICREYCLAVKELFCAKEWQAMEGKAHRGLYRSGMHLLPVPECSKLPSMHRDPTACTRLPYLDYKKENITTFPSITSSRPSADIPNLPASTSSFAVSPAYSMT
modifications: biotin (on the Avi tag, BirA in vitro)
B2: mouse MUSK Fz domain and C-terminal flanking sequence (D307 to T494), Avi-His6, biotinylated (domain or fragment)
chain: DSQGYCAQYRGEVCDAVLAKDALVFFNTSYRDPEDAQELLIHTAWNELKAVSPLCRPAAEALLCNHLFQECSPGVVPTPMPICREYCLAVKELFCAKEWQAMEGKAHRGLYRSGMHLLPVPECSKLPSMHRDPTACTRLPYLDYKKENITTFPSITSSRPSADIPNLPASTSSFAVSPAYSMT
modifications: biotin (on the Avi tag, BirA in vitro)
B3: human MUSK full-length extracellular region (E22 to T495), Avi-His6, biotinylated (domain or fragment)
chain: EKLPKAPVITTPLETVDALVEEVATFMCAVESYPQPEISWTRNKILIKLFDTRYSIRENGQLLTILSVEDSDDGIYCCTANNGVGGAVESCGALQVKMKPKITRPPINVKIIEGLKAVLPCTTMGNPKPSVSWIKGDSPLRENSRIAVLESGSLRIHNVQKEDAGQYRCVAKNSLGTAYSKVVKLEVEVFARILRAPESHNVTFGSFVTLHCTATGIPVPTITWIENGNAVSSGSIQESVKDRVIDSRLQLFITKPGLYTCIATNKHGEKFSTAKAAATISIAEWSKPQKDNKGYCAQYRGEVCNAVLAKDALVFLNTSYADPEEAQELLVHTAWNELKVVSPVCRPAAEALLCNHIFQECSPGVVPTPIPICREYCLAVKELFCAKEWLVMEEKTHRGLYRSEMHLLSVPECSKLPSMHWDPTACARLPHLDYNKENLKTFPPMTSSKPSVDIPNLPSSSSSSFSVSPTYSMT
modifications: biotin (on the Avi tag, BirA in vitro)
B4: MUSK agonist antibody X17, mouse IgG2a-LALAPG format (antibody, V domains shown)
VH: EVQLVESGGGLVQPGGSLRLSCAASGFTISYSSIHWVRQAPGKGLEWVASIYSSSGSTYYADSVKGRFTISADTSKNTAYLQMNSLRAEDTAVYYCARGDHGYYVFGYLGMDYWGQGTLVTVSS
VL: DIQMTQSPSSLSASVGDRVTITCRASQSVSSAVAWYQQKPGKAPKLLIYSASSLYSGVPSRFSGSRSGTDFTLTISSLQPEDFATYYCQQSYKPGALITFGQGTKVEIK
B5: human MUSK Fz domain and C-terminal flanking sequence (K314 to T495), Avi-His6, biotinylated (domain or fragment)
chain: KGYCAQYRGEVCNAVLAKDALVFLNTSYADPEEAQELLVHTAWNELKVVSPVCRPAAEALLCNHIFQECSPGVVPTPIPICREYCLAVKELFCAKEWLVMEEKTHRGLYRSEMHLLSVPECSKLPSMHWDPTACARLPHLDYNKENLKTFPPMTSSKPSVDIPNLPSSSSSSFSVSPTYSMT
modifications: biotin (on the Avi tag, BirA in vitro)

Key:
Test in all cases: FACS
X3 hIgG = molecular target: X3 hIgG
X2 hIgG = molecular target: X2 hIgG
X17 hIgG = molecular target: X17 hIgG
X3 mIgG = molecular target: X3 mIgG
[1] = molecular target: B3
[2] = molecular target: B5
[3] = molecular target: B1
[4] = molecular target: B2

| Kd (X3 hIgG) [nM] | Kd (X2 hIgG) [nM] | Kd (X17 hIgG) [nM] | Kd (X3 mIgG) [nM] | Kd [1] [nM] | Kd [2] [nM] | Kd [3] [nM] | Kd [4] [nM] | Binder |
| --- | --- | --- | --- | --- | --- | --- | --- | --- |
| 0.079 | 0.307 | 1.04 | 0.118 |  |  |  |  | B1 |
| 0.07 | 0.265 | 0.68 | 0.096 |  |  |  |  | B2 |
| 0.074 | 0.478 | 0.86 | 0.113 |  |  |  |  | B3 |
|  |  |  |  | 0.97 | 0.61 | 1.1 | 0.74 | B4 |
| 0.057 | 0.421 | 0.56 | 0.079 |  |  |  |  | B5 |
